Test results published in patent publication US12365732 (23ANDME, dated 2025).
Substitutions are numbered along the chain they refer to. Names and notes keep the numbering of the source. Values belong to the binder of their own block, whether it stands above or below them.

Legend:
[1] = molecular target: T1, hCD155 (Table 28) (human, UniProt P15151 21-343, limits assumed); test: SPR 25C, biotin-CD226-His captured, steady state fitting
T1 sequence (looked up): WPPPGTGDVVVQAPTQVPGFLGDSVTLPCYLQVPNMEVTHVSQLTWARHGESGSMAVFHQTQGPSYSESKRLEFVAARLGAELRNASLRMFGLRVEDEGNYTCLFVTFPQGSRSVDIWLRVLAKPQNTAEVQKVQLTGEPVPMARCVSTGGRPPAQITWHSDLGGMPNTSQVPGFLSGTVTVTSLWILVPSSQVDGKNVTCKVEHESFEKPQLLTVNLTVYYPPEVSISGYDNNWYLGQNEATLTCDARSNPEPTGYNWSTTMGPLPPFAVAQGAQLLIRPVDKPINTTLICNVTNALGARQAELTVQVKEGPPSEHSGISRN
Procedure: To determine the binding affinity to hu-CD226 and cy-CD226 of mAb1.v7.NGS8, h10G1, hCD155 and anti-hCD226 antibody DX11 (Abcam, cat #Ab33397), SPR measurement with a BIACORE™ 8K instrument was performed. Briefly, a 1:4 dilution of Biotin CAPture Reagent (GE Healthcare) into HBS-EP buffer (0.01 M HEPES pH 7.4, 0.15 M NaCl, 3 mM EDTA, 0.005% Surfactant P20) was applied to the chip at 2 µL/min flow rate. For the kinetics measurements, 5 µg/ml of biotinylated hu-CD226 His tag (Sino biological, cat #10565-H08H) and cy-CD226 His tag (Arco biosystems, cat #DN1-052H9) was captured at 10 µL/min to achieve ~50 response units in the second flow cell (FC2). FC1 was kept as a reference. Next, 3-fold serial dilutions of IgG in HBS-P buffer (0.01 M HEPES pH 7.4, 0.15 M NaCl, 0.005% surfactant P20) from low (1.3 nM) to high (1000 nM) concentration were injected (flow rate: 30 µL/min) at 25° C. The sensorgram was recorded and subject to reference and buffer subtraction before evaluating by BIACORE® 8K Evaluation Software (version 1.1.1.7442). Association rates ($kon$) and dissociation rates ($koff$) were calculated using a simple one-to-one Langmuir binding model. The equilibrium dissociation constant (K_D) value was calculated as the ratio of $koff/kon$. […]

[2] = molecular target: T2, hu-CD96 Fc (human, biotinylated in Table 16); test: SPR (Biacore), Fab
T2 construct: also called biotinylated hu-CD96-Fc

[3] = molecular target: T3, cy-CD96 Fc (cynomolgus monkey, biotinylated in Table 16); test: SPR (Biacore), Fab
T3 construct: also called biotinylated cy-CD96-Fc

[4] = molecular target: T4, hu-CD96 (soluble, isoform 2 extracellular domain) (human, UniProt P40200 22-516, biotinylated in Octet and blocking ELISA); test: BLI (Octet), biotin-CD96 on SA, Fab analyte
T4 construct: the assays name only hu-CD96; also called hCD96; biotinylated hu-CD96
T4 sequence: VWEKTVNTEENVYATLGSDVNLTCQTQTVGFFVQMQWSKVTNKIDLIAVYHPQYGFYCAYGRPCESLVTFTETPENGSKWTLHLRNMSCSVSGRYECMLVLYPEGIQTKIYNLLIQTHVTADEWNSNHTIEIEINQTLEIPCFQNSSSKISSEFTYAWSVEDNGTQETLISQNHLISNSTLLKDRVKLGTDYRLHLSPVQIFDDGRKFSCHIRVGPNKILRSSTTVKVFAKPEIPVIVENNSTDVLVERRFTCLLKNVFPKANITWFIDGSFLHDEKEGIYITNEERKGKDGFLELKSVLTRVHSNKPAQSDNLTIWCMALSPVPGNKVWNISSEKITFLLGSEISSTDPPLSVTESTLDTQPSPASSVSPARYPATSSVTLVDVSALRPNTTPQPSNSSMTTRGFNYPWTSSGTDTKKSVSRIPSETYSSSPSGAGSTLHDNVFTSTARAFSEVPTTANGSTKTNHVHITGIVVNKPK

[5] = molecular target: T5, cy-CD96 (soluble, extracellular domain) (cynomolgus monkey, UniProt P40200 22-516 (human entry), biotinylated in Octet and blocking ELISA); test: BLI (Octet), biotin-CD96 on SA, Fab analyte
T5 construct: the assays name only cy-CD96; also called biotinylated cy-CD96
T5 chain: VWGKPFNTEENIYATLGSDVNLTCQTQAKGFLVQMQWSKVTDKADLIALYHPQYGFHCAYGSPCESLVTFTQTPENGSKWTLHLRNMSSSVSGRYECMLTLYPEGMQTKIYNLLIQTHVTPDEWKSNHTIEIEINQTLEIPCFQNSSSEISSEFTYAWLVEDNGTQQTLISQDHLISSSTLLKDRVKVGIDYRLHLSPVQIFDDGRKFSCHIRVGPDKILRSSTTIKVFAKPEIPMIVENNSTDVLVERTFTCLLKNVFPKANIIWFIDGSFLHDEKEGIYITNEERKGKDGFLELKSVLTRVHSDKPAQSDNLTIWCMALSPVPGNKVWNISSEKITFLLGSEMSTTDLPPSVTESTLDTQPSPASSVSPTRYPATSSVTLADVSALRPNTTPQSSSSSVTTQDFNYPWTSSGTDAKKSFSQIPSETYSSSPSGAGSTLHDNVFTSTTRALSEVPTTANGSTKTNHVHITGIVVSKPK

[6] = molecular target: T4, hu-CD96 (soluble, isoform 2 …); test: CD155 blocking ELISA
[7] = molecular target: T5, cy-CD96 (soluble, extracellular domain); test: CD155 blocking ELISA
[8] = molecular target: T6, hu-CD96 isoform 2 on CHO cells (human, UniProt P40200 22-585); test: FACS, blocks 10 nM CD155-Fc-FLAG binding to CD96-CHO
T6 construct: also called CHO-CD96 (isoform 2); CD96-CHOs
T6 sequence: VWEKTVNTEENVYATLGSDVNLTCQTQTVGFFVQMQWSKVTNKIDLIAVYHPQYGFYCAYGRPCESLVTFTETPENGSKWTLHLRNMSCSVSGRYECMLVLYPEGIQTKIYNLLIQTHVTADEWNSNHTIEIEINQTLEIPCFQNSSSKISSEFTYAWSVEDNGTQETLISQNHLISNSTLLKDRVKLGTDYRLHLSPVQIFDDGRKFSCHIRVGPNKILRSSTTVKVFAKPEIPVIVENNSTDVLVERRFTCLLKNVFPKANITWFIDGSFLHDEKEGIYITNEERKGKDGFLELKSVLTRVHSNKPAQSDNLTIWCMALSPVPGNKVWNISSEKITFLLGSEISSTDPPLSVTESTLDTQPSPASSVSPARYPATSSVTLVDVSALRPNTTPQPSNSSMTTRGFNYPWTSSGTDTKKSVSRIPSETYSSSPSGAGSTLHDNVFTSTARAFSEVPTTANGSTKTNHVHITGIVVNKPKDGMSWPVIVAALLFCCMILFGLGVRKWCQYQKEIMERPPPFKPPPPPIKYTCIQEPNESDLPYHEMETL
Procedure: (§1) CHO cells stably expressing isoform 2 of hu-CD96 (Origene, catalog #RC221005) were incubated with anti-CD96 antibodies for 20 minutes at 4° C. The cells were washed, and then incubated with 10 nM human CD155-Fc-FLAG for 30 minutes at 4° C. Cells were washed, and then human CD155-Fc-FLAG binding was detected by incubation with anti-FLAG-APC (Columbia Biosciences, catalog #D3-1718-1MG) for 20 minutes at 4° C. Cell binding was analyzed by flow cytometry with a CytoFLEX (Beckman Coulter). CD155 binding is represented as median fluorescence intensity (MedFI).
(§2) As shown in Table 20 (below), the anti-CD96 antibodies, mAb1.v7.NGS8, mAb1.v7.NGS9, mAb1.v7.NGS10, mAb1.v7.NGS11, and h10G1 inhibited soluble hu-CD155 binding to CD96-expressing CHO cells dose-dependently and potently. The antibody NK92.39 (Fuchs et al., 2004; Biolegend catalog #338405) inhibited receptor binding similarly.

[9] = molecular target: T6, hu-CD96 isoform 2 on CHO cells; test: FACS, CD155-Fc-FLAG 10 nM, Ab 4 nM
Procedure: as §1, §2

[10] = molecular target: T2, hu-CD96 Fc; test: SPR 37C, biotin-CD96-Fc captured, IgG analyte
Procedure: Briefly, a 1:4 dilution of Biotin CAPture Reagent (GE Healthcare) into HBS-EP buffer (0.01 M HEPES pH 7.4, 0.15 M NaCl, 3 mM EDTA, 0.005% Surfactant P20) was applied to the chip at 2 µL/min flow rate. For the kinetics measurements, 20 nM biotinylated hu-CD96-Fc and cy-CD96-Fc was captured at 10 µL/min to achieve ~50 response units in the second flow cell (FC2). FC1 was kept as a reference. Next, 4-fold serial dilutions of IgG in HBS-P buffer (0.01 M HEPES pH 7.4, 0.15 M NaCl, 0.005% surfactant P20) from low (3.125 nM) to high (200 nM) concentration were injected (flow rate: 10 µL/min) at 37° C. The sensorgram was recorded and subject to reference and buffer subtraction before evaluating by BIACORE® 8K Evaluation Software (version 1.1.1.7442). Association rates ($kon$) and dissociation rates ($koff$) were calculated using a simple one-to-one Langmuir binding model. The equilibrium dissociation constant (K_D) value was calculated as the ratio of $koff/kon$.

[11] = molecular target: T6, hu-CD96 isoform 2 on CHO cells; test: FACS, CD155-Fc-FLAG 10 nM, Ab 100 nM
Procedure: as §1, §2

[12] = molecular target: T6, hu-CD96 isoform 2 on CHO cells; test: FACS, CD155-Fc-FLAG 10 nM, Ab 0.032 nM
Procedure: as §1, §2

[13] = molecular target: T6, hu-CD96 isoform 2 on CHO cells; test: FACS, CD155-Fc-FLAG 10 nM, Ab 20 nM
Procedure: as §1, §2

[14] = molecular target: T6, hu-CD96 isoform 2 on CHO cells; test: FACS, CD155-Fc-FLAG 10 nM, Ab 0.0064 nM
Procedure: as §1, §2

[15] = molecular target: T6, hu-CD96 isoform 2 on CHO cells; test: FACS, CD155-Fc-FLAG 10 nM, Ab 0.8 nM
Procedure: as §1, §2

[16] = molecular target: T6, hu-CD96 isoform 2 on CHO cells; test: FACS, CD155-Fc-FLAG 10 nM, Ab 0.16 nM
Procedure: as §1, §2

B3: mAb1.v7.NGS8 IgG (antibody, V domains shown)
VH: EVQLVQSGAEVKKPGASVKVSCKASGFTFTNNFMHWVRQAPGQGLEWIGMIHANSGITNINEKFKNRVTMTTDTSTSTAYMELRSLRSEDTAVYYCRSDGIYEGYFDYWGQGTLVTVSS
VL: DIQLTQSPSSLSASVGDRVTITCKASQNVGTAIVWYQQKPGKAPKVLIYSASTRYTGVPSRFSGSGSGTDFTLTISSLQPEDFATYYCQQYSSSPLTFGQGTKVEIKG
notes: human IgG1 N297G
IC50 [8]: 0.76 nM
CD155-Fc binding (MedFI) [9]: 4960 MedFI
Kd [10]: 0.15 nM
koff [10]: 1.99e-05 s⁻¹
kon [10]: 129000 M⁻¹ s⁻¹
CD155-Fc binding (MedFI) [11]: 4180 MedFI
CD155-Fc binding (MedFI) [12]: 47800 MedFI
CD155-Fc binding (MedFI) [13]: 4290 MedFI
CD155-Fc binding (MedFI) [14]: 49200 MedFI
CD155-Fc binding (MedFI) [15]: 23600 MedFI
CD155-Fc binding (MedFI) [16]: 52900 MedFI

B4: mAb1.v7.NGS10 Fab (Fab, V domains shown)
VH: B3 VH with M50F
VL: DIQLTQSPSSLSASVGDRVTITCKASQNVGTAIVWYQQKPGKAPKVLIYSASTRYTGVPSRFSGSGSGTDFTLTISSLQPEDFATYYCQQYSSSPLTFGQGTKVEIK
notes: Fab; also called W33F/M50F/P52aA/T97I
Kd [2]: 2.1 nM
koff [2]: 2.6e-05 s⁻¹
kon [2]: 12100 M⁻¹ s⁻¹
Kd [3]: 30 nM
koff [3]: 0.000343 s⁻¹
kon [3]: 11400 M⁻¹ s⁻¹
IC50 [6]: 0.54 nM
IC50 [7]: 0.84 nM

B5: mAb1.v7.NGS11 Fab (Fab, V domains shown)
VH: B3 VH with M50F, I101V
VL: B4 VL
notes: also called W33F/M50F/P52aA/T97V
Kd [2]: 2.62 nM
koff [2]: 2.75e-05 s⁻¹
kon [2]: 10500 M⁻¹ s⁻¹
Kd [3]: 19.1 nM
koff [3]: 0.000215 s⁻¹
kon [3]: 11200 M⁻¹ s⁻¹
IC50 [6]: 0.59 nM
IC50 [7]: 0.95 nM

More lines, now with the values ahead:

Kd [1]: 161 nM
B1: hu-CD226 His tag (receptor, human, UniProt Q15762 19-247, looked up)
chain: EEVLWHTSVPFAENMSLECVYPSMGILTQVEWFKIGTQQDSIAIFSPTHGMVIRKPYAERVYFLNSTMASNNMTLFFRNASEDDVGYYSCSLYTYPQGTWQKVIQVVQSDSFEAAVPSNSHIVSEPGKNVTLTCQPQMTWPVQAVRWEKIQPRQIDLLTYCNLVHGRNFTSKFPRQIVSNCSHGRWSVIVIPDVTVSDSGLYRCYLQASAGENETFVMRLTVAEGKTDN
modifications: biotinylated

Kd [2]: 5.85 nM
koff [2]: 8.32e-05 s⁻¹
kon [2]: 14200 M⁻¹ s⁻¹
Kd [3]: 16.7 nM
koff [3]: 0.000414 s⁻¹
kon [3]: 24800 M⁻¹ s⁻¹
Kd [4]: 0.1 nM
Kd [5]: 82 nM
IC50 [6]: 0.78 nM
IC50 [7]: 0.73 nM
B2: mAb1.v7.NGS9 Fab (Fab, V domains shown)
VH: B3 VH with I101V
VL: B4 VL
notes: also called W33F/P52aA/T97V
